Experimental data taken from patent US20250282887A1 (Amgen, published 2025).

Assays:
human MAGEB6 = biological target: T1, human MAGEB6 (human, UniProt Q8N7X4 1-407); assay: IHC, FFPE CHO cells transfected with human MAGEB6
T1 construct: whole, on cells; FFPE cell pellets
T1 sequence (looked up): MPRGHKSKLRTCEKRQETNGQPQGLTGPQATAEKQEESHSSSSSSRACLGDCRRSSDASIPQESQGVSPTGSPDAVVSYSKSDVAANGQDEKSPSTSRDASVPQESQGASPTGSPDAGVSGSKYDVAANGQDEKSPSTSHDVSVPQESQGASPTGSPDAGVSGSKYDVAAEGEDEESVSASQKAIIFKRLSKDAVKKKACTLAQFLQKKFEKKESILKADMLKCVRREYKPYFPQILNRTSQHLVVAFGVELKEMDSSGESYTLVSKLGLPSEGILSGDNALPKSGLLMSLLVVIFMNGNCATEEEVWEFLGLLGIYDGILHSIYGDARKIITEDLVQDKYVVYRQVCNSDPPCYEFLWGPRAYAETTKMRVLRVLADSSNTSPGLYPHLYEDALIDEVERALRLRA
Procedure: (§1) FFPE samples were sectioned at 4 μm and mounted on positive charged glass slides. After mounting, paraffin sections were air-dried at room temperature. FFPE TMA samples were received as freshly sectioned and mounted on glass slides. The fully automated IHC assay was performed on a Discovery Ultra Stainer (Ventana Medical Systems, Tucson, AZ) using Ventana Anti-Rabbit HQ (cat #760-4815), Ventana Anti-HQ HRP (cat #760-4820), and Ventana Antibody Diluent with Casein (cat #760-219) (Ventana Medical Systems, Tucson, AZ). The slides were baked on the Discovery Ultra Stainer at 60° C. for 8 minutes, de-paraffinized with Ventana Discovery wash (cat #950-510) for 3 cycles (8 minutes each) at 69° C., and underwent cell conditioning (target retrieval) at 95° C. for 16 minutes (for cell arrays) or 32 minutes (tissues or TMAs) in CC1 buffer (cat #950-500). Following this, slides were incubated with Background Sniper (cat #BS966M, Biocare Medical, Pacheco, CA) in a Ventana Option Prep kit (cat #771-751) for 28 minutes, incubated with CM inhibitor (a part of the Ventana DAB kit cat #760-159) for 12 minutes, and incubated for 1 h at RT with MAGE-B2 antibody diluted with Ventana diluent with Casein in a Ventana Prep kit (cat #770-001) (working concentration at 0.1 μg/ml for cell pellet, or 1-5 ug/ml for tissues) or with a matched concentration of isotype control Rabbit IgG1 antibody. Following this, slides were incubated with the Ventana Anti-Rabbit HQ (cat #760-4815) for 28 minutes at RT, Ventana Anti-HQ HRP (cat #760-4820) for 28 minutes at RT, and signals detected with Ventana DAB chromogen kit (cat #760-159) for 5 minutes at RT. Slides were counterstained with Ventana Hematoxylin II (cat #5266726001) for 8 minutes and Ventana Bluing reagent (cat #526676900) for 4 minutes. Slides were coverslipped and digitized using an Aperio AT2 scanner (Leica Biosystems Inc, Buffalo Grove, IL).

human MAGEB3 = biological target: T2, human MAGEB3 (human, UniProt O15480 1-346); assay: IHC, FFPE CHO cells transfected with human MAGEB3
T2 construct: whole, on cells; Transfected into CHO cells with Myc/DDK tags
T2 sequence (looked up): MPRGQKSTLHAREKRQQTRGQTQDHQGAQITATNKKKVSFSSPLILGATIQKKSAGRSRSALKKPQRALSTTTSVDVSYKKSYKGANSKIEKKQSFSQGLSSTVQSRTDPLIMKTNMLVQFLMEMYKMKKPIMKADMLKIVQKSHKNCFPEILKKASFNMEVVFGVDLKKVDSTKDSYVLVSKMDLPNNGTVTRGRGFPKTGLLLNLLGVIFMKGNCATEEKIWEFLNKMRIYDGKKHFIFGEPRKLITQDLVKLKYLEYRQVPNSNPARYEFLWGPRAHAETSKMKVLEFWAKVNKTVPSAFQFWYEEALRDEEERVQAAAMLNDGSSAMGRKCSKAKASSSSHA
Excerpt: Negative control cells included parental Chinese hamster ovary (CHO) cells, CHO cells stably transfected with mCherry Vector Control (minus Myc/DDK tags), CHO cells stably transfected with mCherry-human DCAF4L2 (plus Myc/DDK tags). The cross-reactivity control cells included CHO cells transfected with mCherry Vector Control (plus Myc/DDK tags) with one of the human MAGE-B or MAGE-A family members (MAGEA1, MAGEA2, MAGEA3, MAGEA4, MAGEA5, MAGEA6, MAGEA8, MAGEA9, MAGEA11, MAGEA12, MAGEB1, MAGEB3, MAGEB4, MAGEB5, MAGEB6, MAGEB10, MAGEB16, MAGEB17, MAGEB18). Positive control cell lines included CHO cells transfected with mCherry Vector (plus Myc/DDK tags) with human MAGE-B2 or CHO cells transfected with mCherry Vector (open reading frame (ORF); minus Myc/DDK tags) with human MAGEB2, and thirteen human cancer cell lines with known endogenous RNA expression level of MAGEB2 (U266B1, T98G, KMM-1, U20S, CFPAC-1, SCaBER, UACC-257, CFPAC-1, VMRC-LCD, NCI-H1703, UM-UC-3, NCI-H1395, NCIH82).
as §1, with “antibody.” for “antibody. Following this, slides were incubated with the Ventana Anti-Rabbit HQ (cat #760-4815) for 28 minutes at RT, Ventana Anti-HQ HRP (cat #760-4820) for 28 minutes at RT, and signals detected with Ventana DAB chromogen kit (cat #760-159) for 5 minutes at RT. Slides were counterstained with Ventana Hematoxylin II (cat #5266726001) for 8 minutes and Ventana Bluing reagent (cat #526676900) for 4 minutes. Slides were coverslipped and digitized using an Aperio AT2 scanner (Leica Biosystems Inc, Buffalo Grove, IL).”

B1: 1C3 (antibody, V domains shown)
VH: QSLEESGGGLVQPEGSLTLTCTAFGVTLTNYYICWVRQAPGKGLEWVGCIDNANGRTYYASWAKGRFTISKTSSTTGTLQMTSLTAADTATYFCARSLATPLWGPGTLVTVSS
VL: DIVMTQTPSSVEAAVGGTVTIKCQASQNISSYLAWYQQKPGQPPKLLIYRASTLASGVPSRFKGSGSGTQFTLTISDLECADAATYYCQSYDDSRSSNFFYAFGGGTEVVVKG
notes: also called MAGE-B2 (IC3); anti-MAGEB2 antibody 1C3
B1: no binding (tested: 0.1 µg/ml) (human MAGEB6); no binding (tested: 0.1 µg/ml) (human MAGEB3).

B2: 4G17 (antibody, IgG1, V domains shown)
VH: QSLEESGGGLVQPEGSLTLTCTASGVTLSNYYICWVRQAPGKGLEWIGCIDNVNGRTYYASWAKGRFTISKTSSTTGTLQMTSLTAADTATYFCARSLATPLWGPGTLVTVSS
VL: DIVMTQTPASVEAAVGGTVTIKCQASQNIDSYLAWYQQKPGQPPKLLIYRASTLASGVPSRFKGSGSGTEFTLTISDLECADAATYYCQSYDDSRSSSFFYGFGGGTEVVVK
notes: Rabbit monoclonal IgG1; Tested as supernatant and as small batch purified antibody; also called MAGE-B2 (4G17); anti-MAGEB2 antibody 4G17
B2: no binding (tested: 0.1 µg/ml) (human MAGEB6); no binding (tested: 0.1 µg/ml) (human MAGEB3).

B3: 1J15 (antibody, IgG1, V domains shown)
VH: QSLEESGGGLVQPEGSLTLTCTAFGFTLNNYYICWVRQAPGKGLEWIACIDNANGRTYYASWAKGRFTISKTSSTTVTLQMTSLTAADTATYFCARSLSTPLWGPGTLVTVSS
VL: DIVMTQTPASVEAAVGGTVTIKCQASQSISSYLSWYQQKPGQPPKLLIYRASTLASGVPSRFRGSGSGTQFTLTISDLECADAATYYCQSYDDSSDNNFFYGFGGGTEVVVR
notes: Rabbit monoclonal IgG1; Tested as supernatant and as small batch purified antibody; also called MAGE-B2 (IJ15); anti-MAGEB2 antibody 1J15
B3: no binding (tested: 0.1 µg/ml) (human MAGEB6); no binding (tested: 0.1 µg/ml) (human MAGEB3).

B4: 1I14 (antibody, V domains shown)
VH: QSVEESGGRLVTPGTPLTLTCTISGFSLSSYAMSWVRQAPGKGLEWIGSIGGGGSAVYASWAKGRFTISKTSTTVDLRITSPTTEDTAMYFCGRGFYSIDLWGPGTLVTVSS
VL: DVVMTQTPASVEATVGGTVTIKCQSSQSVYDNNALAWYQQNAGQRPRLLIYGASTLASGVPSRFSASGSGTEFTLTISDLECADAATYYCQCTYYVSSYQNDFGGGTEVVVKG
notes: also called MAGE-B2 (1i14)
B4: no binding (tested: 0.1 µg/ml) (human MAGEB6); no binding (tested: 0.1 µg/ml) (human MAGEB3).
